Measured values from patent publication US20250136686A1 (GUANGDONG KEGUANDA PHARMACEUTICAL TECHNOLOGY, published 2025).

T1: CD101 (human, UniProt Q93033 21-1021)
T1 sequence (looked up): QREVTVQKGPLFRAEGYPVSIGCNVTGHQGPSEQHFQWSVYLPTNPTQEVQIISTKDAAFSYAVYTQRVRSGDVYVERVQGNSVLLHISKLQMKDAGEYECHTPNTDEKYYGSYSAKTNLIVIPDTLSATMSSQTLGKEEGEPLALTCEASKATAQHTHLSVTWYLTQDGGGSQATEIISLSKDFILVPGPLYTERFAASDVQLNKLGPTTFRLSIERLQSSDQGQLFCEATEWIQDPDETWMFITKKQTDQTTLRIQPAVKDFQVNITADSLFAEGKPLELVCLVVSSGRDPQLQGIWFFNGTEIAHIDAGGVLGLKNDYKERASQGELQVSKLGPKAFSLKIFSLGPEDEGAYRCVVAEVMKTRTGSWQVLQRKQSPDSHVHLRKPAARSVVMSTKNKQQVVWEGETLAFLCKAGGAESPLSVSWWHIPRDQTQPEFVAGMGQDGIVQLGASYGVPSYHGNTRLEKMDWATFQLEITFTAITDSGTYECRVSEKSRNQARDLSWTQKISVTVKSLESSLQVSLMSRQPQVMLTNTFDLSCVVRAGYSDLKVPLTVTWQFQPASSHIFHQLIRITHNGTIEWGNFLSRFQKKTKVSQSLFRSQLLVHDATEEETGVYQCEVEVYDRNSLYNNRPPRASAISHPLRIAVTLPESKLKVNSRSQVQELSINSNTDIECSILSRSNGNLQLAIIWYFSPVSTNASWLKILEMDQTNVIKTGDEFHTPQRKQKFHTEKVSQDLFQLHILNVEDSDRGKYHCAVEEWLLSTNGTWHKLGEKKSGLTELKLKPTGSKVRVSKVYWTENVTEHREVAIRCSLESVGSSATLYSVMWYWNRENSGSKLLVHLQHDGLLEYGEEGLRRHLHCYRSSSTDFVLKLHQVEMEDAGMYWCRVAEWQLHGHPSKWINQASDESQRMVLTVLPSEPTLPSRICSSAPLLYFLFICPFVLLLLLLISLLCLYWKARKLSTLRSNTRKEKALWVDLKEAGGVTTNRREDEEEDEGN

T2: CD101 (human, UniProt Q93033 21-1021)
T2 chain: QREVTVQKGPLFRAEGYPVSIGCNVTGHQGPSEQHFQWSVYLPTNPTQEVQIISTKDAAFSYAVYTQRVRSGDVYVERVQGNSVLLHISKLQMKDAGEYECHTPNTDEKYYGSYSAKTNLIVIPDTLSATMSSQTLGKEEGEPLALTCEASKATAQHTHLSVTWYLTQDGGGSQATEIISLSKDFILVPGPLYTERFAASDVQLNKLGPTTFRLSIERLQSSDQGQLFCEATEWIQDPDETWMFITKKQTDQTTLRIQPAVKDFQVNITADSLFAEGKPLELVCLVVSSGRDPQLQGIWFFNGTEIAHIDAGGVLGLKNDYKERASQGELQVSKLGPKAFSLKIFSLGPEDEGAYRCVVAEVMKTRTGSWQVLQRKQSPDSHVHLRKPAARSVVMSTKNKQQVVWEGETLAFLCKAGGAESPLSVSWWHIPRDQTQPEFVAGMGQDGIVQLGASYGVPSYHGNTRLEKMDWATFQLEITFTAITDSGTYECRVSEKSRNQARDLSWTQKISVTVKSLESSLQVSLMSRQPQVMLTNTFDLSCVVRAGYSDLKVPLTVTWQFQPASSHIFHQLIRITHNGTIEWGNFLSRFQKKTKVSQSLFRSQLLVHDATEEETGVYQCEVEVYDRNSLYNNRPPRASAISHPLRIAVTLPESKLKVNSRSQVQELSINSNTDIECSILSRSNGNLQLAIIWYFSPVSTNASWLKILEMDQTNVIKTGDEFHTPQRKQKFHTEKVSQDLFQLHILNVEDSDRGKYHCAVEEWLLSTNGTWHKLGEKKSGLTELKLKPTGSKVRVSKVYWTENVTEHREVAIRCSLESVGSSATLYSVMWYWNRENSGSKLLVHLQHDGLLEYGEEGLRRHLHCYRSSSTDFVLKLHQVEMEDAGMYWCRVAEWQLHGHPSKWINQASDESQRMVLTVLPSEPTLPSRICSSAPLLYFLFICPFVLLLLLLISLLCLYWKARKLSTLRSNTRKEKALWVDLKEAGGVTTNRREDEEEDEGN


What was measured:
CD101 [1] = target: T1, CD101; assay: cell-based or functional assay
CD101 [2] = target: T2, CD101; assay: FACS
CD101 [3] = target: T1, CD101; assay: FACS, culture supernatant on 293F-CD101 cells
Experimental: Expression vectors for humanized antibodies carrying a designed heavy-chain or light-chain sequence were transiently transfected into 293F cells in pairs according to a standard protocol. Specifically, PBS was added at 2 mL/well to a 6-well plate, then 2 μg of a pcDNA3.4-IgG1 expression vector and 2 μg of a pcDNA3.4-IgKc expression vector were added, and thorough mixing was conducted by pipetting up and down. 12 μL of a LVTransm transfection reagent was added, then thorough mixing was immediately conducted by pipetting up and down, and the plate was allowed to stand at room temperature for 10 min. A DNA/LVTransm complex was added to 3 mL of 293F cells, and gentle shaking was conducted for thorough mixing. The cells were further cultured for 3 d in a 37° C. and 5% CO₂ incubator, and a culture supernatant was collected through centrifugation and tested by FACS.
FACS was conducted according to a standard protocol. […] Cells were washed with PBS 3 times. 100 μL of a secondary antibody (PE-anti-human IgG, which was diluted 1:200) was added, thorough mixing was conducted, and incubation was conducted for 45 min at room temperature in the dark. Cells were washed with PBS 3 times and then resuspended with 500 μL of PBS. A fluorescence intensity was read by a multimode microplate reader for FACS analysis. […] In the follow-up experiments, the four combinations of VH1-VL1, VH1-VL2, VH3-VL1, and VH3-VL2 (hu.CA1 to hu.CA4) were taken as examples for antibody purification and affinity testing.

| Binder | inhibitory effect for CD101 (flow cytometry of CD101 on Jurkat cells overexpressing CD101, 3 h, 1,600 ng/mL) (CD101 [1]) [%] | inhibitory effect for CD101 (flow cytometry of CD101 on Jurkat cells overexpressing CD101, 8 h, 1,600 ng/mL) (CD101 [1]) [%] | EC50 (CD101 [2]) [µg/mL] | binding result (CD101 [3]) |
| --- | --- | --- | --- | --- |
| 19-A11-H3-B11-VH3VL2 humanized antibody (hu.CA4) (antibody, V domains shown) VH: EVQLVQSGAEVKKPGASVKVSCKASGFTLTEYTIHWVRQAPGQGLEWIGWFYPGSGGIKYNEKFQDRVTLTADTSISTVYMELSRLRSDDTVVYFCARHAFYRNYEYFDVWGTGTMVTVSS VL: DIVMTQAPLSLPVTPGTPASISCRSSKSLLHSNGITYLYWYLQKPGQSPQLLIYQMSNLASGVPDRFSSSGSGTDFTLKISRVEAEDVGVYYCAQNLELPLTFGAGTKLEIK | ~80 | ≥ 90 | 8.49 |  |
| 19-A11-H3-B11 chimeric antibody (CA1) (antibody, V domains shown) VH: EVQLQQSGAELVRPGASVKLSCKASGFTLTEYTIHWVKQRSGQGLEWIGWFYPGSGGIKYNEKFKDKATLTADESSSTVYMELSRLTSEDSAVYFCARHAFYRNYEYFDVWGTGTTVTVSS VL: DIVMTQAAFSNPVTLGTSASISCRSSKSLLHSNGITYLYWYLQKPGQSPQLLIYQMSNLASGVPDRFSSSGSGTDFTLRISRVEAEDVGVYYCAQNLELPLTFGAGTKLELK | ~80 | ≥ 90 | 6.62 |  |
| humanized antibody VH3-VL1 (hu.CA3) (antibody, V domains shown) VH: EVQLVQSGAEVKKPGASVKVSCKASGFTLTEYTIHWVRQAPGQGLEWIGWFYPGSGGIKYNEKFQDRVTLTADTSISTVYMELSRLRSDDTVVYFCARHAFYRNYEYFDVWGTGTMVTVSS VL: DIVMTQAPFSLPVTPGTPASISCRSSKSLLHSNGITYLYWYLQKPGQSPQLLIYQMSNLASGVPDRFSSSGSGTDFTLKISRVEAEDVGVYYCAQNLELPLTFGAGTKLEIK | ~80 | ≥ 90 | 11 |  |
| humanized antibody VH1-VL2 (hu.CA2) (antibody, V domains shown) VH: EVQLVQSGAEVKKPGASVKVSCKASGFTLTEYTIHWVRQAPGQGLEWIGWFYPGSGGIKYNEKFQDRVTLTADESISTVYMELSRLRSDDTAVYFCARHAFYRNYEYFDVWGTGTMVTVSS VL: DIVMTQAPLSLPVTPGTPASISCRSSKSLLHSNGITYLYWYLQKPGQSPQLLIYQMSNLASGVPDRFSSSGSGTDFTLKISRVEAEDVGVYYCAQNLELPLTFGAGTKLEIK | ~80 | ≥ 90 | 9.1 |  |
| humanized antibody VH1-VL1 (hu.CA1) (antibody, V domains shown) VH: EVQLVQSGAEVKKPGASVKVSCKASGFTLTEYTIHWVRQAPGQGLEWIGWFYPGSGGIKYNEKFQDRVTLTADESISTVYMELSRLRSDDTAVYFCARHAFYRNYEYFDVWGTGTMVTVSS VL: DIVMTQAPFSLPVTPGTPASISCRSSKSLLHSNGITYLYWYLQKPGQSPQLLIYQMSNLASGVPDRFSSSGSGTDFTLKISRVEAEDVGVYYCAQNLELPLTFGAGTKLEIK | ~80 | ≥ 90 | 7.9 |  |
| humanized antibody VH2-VL2 (antibody, V domains shown, IgG1, kappa; tested as culture supernatant; also called VH-HM2 / VL-HM2) VH: EVQLVQSGAEVKKPGASVKVSCKASGFTLTEYTIHWVRQAPGQGLEWIGWFYPGSGGIKYNEKFQDRVTLTADESASTVYMELSSLRSEDTAVYFCARHAFYRNYEYFDVWGTGTMVTVSS VL: DIVMTQAPLSLPVTPGTPASISCRSSKSLLHSNGITYLYWYLQKPGQSPQLLIYQMSNLASGVPDRFSSSGSGTDFTLKISRVEAEDVGVYYCAQNLELPLTFGAGTKLEIK |  |  |  | binds |
| humanized antibody VH3-VL3 (antibody, V domains shown, IgG1, kappa; tested as culture supernatant; also called VH-HM3 / VL-HM3) VH: EVQLVQSGAEVKKPGASVKVSCKASGFTLTEYTIHWVRQAPGQGLEWIGWFYPGSGGIKYNEKFQDRVTLTADTSISTVYMELSRLRSDDTVVYFCARHAFYRNYEYFDVWGTGTMVTVSS VL: DIVMTQAPFSSPVTLGTPASISCRSSKSLLHSNGITYLYWYQQRPGQSPRLLIYQMSNLASGVPDRFSSSGSGTDFTLKISRVEAEDVGVYYCAQNLELPLTFGAGTKLEIK |  |  |  | binds |
| humanized antibody VH1-VL3 (antibody, V domains shown, IgG1, kappa; tested as culture supernatant; also called VH-HM1 / VL-HM3) VH: EVQLVQSGAEVKKPGASVKVSCKASGFTLTEYTIHWVRQAPGQGLEWIGWFYPGSGGIKYNEKFQDRVTLTADESISTVYMELSRLRSDDTAVYFCARHAFYRNYEYFDVWGTGTMVTVSS VL: DIVMTQAPFSSPVTLGTPASISCRSSKSLLHSNGITYLYWYQQRPGQSPRLLIYQMSNLASGVPDRFSSSGSGTDFTLKISRVEAEDVGVYYCAQNLELPLTFGAGTKLEIK |  |  |  | binds |
| humanized antibody VH4-VL1 (antibody, V domains shown, IgG1, kappa; tested as culture supernatant; also called VH-HM4 / VL-HM1) VH: EVQLVQSGAEVKKPGASVKVSCKASGFTLTEYTIHWVKQAPGQGLEWIGWFYPGSGGIKYNEKFQDRVTLTADESSSTVYMELSRLRSDDTAVYFCARHAFYRNYEYFDVWGTGTMVTVSS VL: DIVMTQAPFSLPVTPGTPASISCRSSKSLLHSNGITYLYWYLQKPGQSPQLLIYQMSNLASGVPDRFSSSGSGTDFTLKISRVEAEDVGVYYCAQNLELPLTFGAGTKLEIK |  |  |  | binds |
| humanized antibody VH4-VL3 (antibody, V domains shown, IgG1, kappa; tested as culture supernatant; also called VH-HM4 / VL-HM3) VH: EVQLVQSGAEVKKPGASVKVSCKASGFTLTEYTIHWVKQAPGQGLEWIGWFYPGSGGIKYNEKFQDRVTLTADESSSTVYMELSRLRSDDTAVYFCARHAFYRNYEYFDVWGTGTMVTVSS VL: DIVMTQAPFSSPVTLGTPASISCRSSKSLLHSNGITYLYWYQQRPGQSPRLLIYQMSNLASGVPDRFSSSGSGTDFTLKISRVEAEDVGVYYCAQNLELPLTFGAGTKLEIK |  |  |  | binds |
| humanized antibody VH4-VL2 (antibody, V domains shown, IgG1, kappa; tested as culture supernatant; also called VH-HM4 / VL-HM2) VH: EVQLVQSGAEVKKPGASVKVSCKASGFTLTEYTIHWVKQAPGQGLEWIGWFYPGSGGIKYNEKFQDRVTLTADESSSTVYMELSRLRSDDTAVYFCARHAFYRNYEYFDVWGTGTMVTVSS VL: DIVMTQAPLSLPVTPGTPASISCRSSKSLLHSNGITYLYWYLQKPGQSPQLLIYQMSNLASGVPDRFSSSGSGTDFTLKISRVEAEDVGVYYCAQNLELPLTFGAGTKLEIK |  |  |  | binds |
| humanized antibody VH2-VL1 (antibody, V domains shown, IgG1, kappa; tested as culture supernatant; also called VH-HM2 / VL-HM1) VH: EVQLVQSGAEVKKPGASVKVSCKASGFTLTEYTIHWVRQAPGQGLEWIGWFYPGSGGIKYNEKFQDRVTLTADESASTVYMELSSLRSEDTAVYFCARHAFYRNYEYFDVWGTGTMVTVSS VL: DIVMTQAPFSLPVTPGTPASISCRSSKSLLHSNGITYLYWYLQKPGQSPQLLIYQMSNLASGVPDRFSSSGSGTDFTLKISRVEAEDVGVYYCAQNLELPLTFGAGTKLEIK |  |  |  | binds |
| humanized antibody VH2-VL3 (antibody, V domains shown, IgG1, kappa; tested as culture supernatant; also called VH-HM2 / VL-HM3) VH: EVQLVQSGAEVKKPGASVKVSCKASGFTLTEYTIHWVRQAPGQGLEWIGWFYPGSGGIKYNEKFQDRVTLTADESASTVYMELSSLRSEDTAVYFCARHAFYRNYEYFDVWGTGTMVTVSS VL: DIVMTQAPFSSPVTLGTPASISCRSSKSLLHSNGITYLYWYQQRPGQSPRLLIYQMSNLASGVPDRFSSSGSGTDFTLKISRVEAEDVGVYYCAQNLELPLTFGAGTKLEIK |  |  |  | binds |
